The values below come from patent publication US20220282217A1 (BIONTECH US, published 2022).

For one test, the target named is HLA-A02.01 (human). The test is described as follows: competition vs radiolabeled reference peptide on purified MHC I, gel filtration. How it is done:
(§1) Peptides were incubated at varying concentrations with these complexes for 2 days, and the amount of remaining radiolabeled peptide bound to […] was measured using size exclusion gel-filtration.
In general terms: SEC sorts molecules by how far they enter the pores of the column.

In test [1] the target is T1, HLA class I molecule A02.01.
T1 construct: Purified MHC class I complex; also called HLA-A02:01
The test is described as follows: competition with radiolabeled reference peptide on purified MHC I. The procedure: as §1

Usually IC50 stands for the concentration that inhibits the measured activity by half.

B1: SVCFFFFCYI (peptide)
peptide: SVCFFFFCYI
notes: also called CNOT1(-1)
In the test with HLA-A02.01, B1 gave an IC50 of 520 nM.

B2: RLWHLLLQVT (peptide)
peptide: RLWHLLLQVT
notes: also called MLL2, . . ; LSPH
In turn, B2 yielded an IC50 in test [1] of 50.9 nM.

B3: IVSRTLLLV (peptide)
peptide: IVSRTLLLV
notes: also called MSH3(-1)
The molecule B3 came in with an IC50 in test [1] of 12.7 nM.

B4: VLQRFRFTHV (peptide)
peptide: VLQRFRFTHV
notes: also called β2M, . . ; SQIS
In the test with HLA-A02.01, B4 had an IC50 of 107 nM.

B5: AQAGVQWRSL (peptide)
peptide: AQAGVQWRSL
notes: also called C15ORF40(+1)
On to B5, for which the IC50 with HLA-A02.01 is 670 nM.

B6: GLSISCTTL (peptide)
peptide: GLSISCTTL
notes: also called β2M, . . ; MPAV
As for B6, in the test with HLA-A02.01, the IC50 turned out to be 114 nM.

B7: AIQPVLWTT (peptide)
peptide: AIQPVLWTT
notes: also called GATA3 . . ; CSNH
As for B7, the concentration for half-maximal inhibition (IC50) in test [1] is 8.1 nM.

B8: VLPEPHLAL (peptide)
peptide: VLPEPHLAL
notes: also called GATA3 . . ; CSNH
B8 gave an IC50 in test [1] of 16 nM.

B9: FLSSWDYRRM (peptide)
peptide: FLSSWDYRRM
notes: also called C15ORF40(+1)
As to B9, the IC50 in the test with HLA-A02.01 turned out to be 324 nM.

B10: LLPEDTPPL (peptide)
peptide: LLPEDTPPL
notes: also called MSH6(+1)
As to B10, the IC50 in test [1] was found to be 2.8 nM.

B11: ALFFFFFET (peptide)
peptide: ALFFFFFET
notes: also called C15ORF40(+1)
In turn, B11 displayed an IC50 in the test with HLA-A02.01 of 471 nM.

B12: LQVTQTSFAL (peptide)
peptide: LQVTQTSFAL
notes: also called MLL2, . . ; LSPH
Molecule B12 gave an IC50 in test [1] of 718 nM.

B13: ALAPTLTHML (peptide)
peptide: ALAPTLTHML
notes: also called MLL2, . . ; LSPH
In test [1], B13 had an IC50 of 39 nM.

B14: ALWECSLPQA (peptide)
peptide: ALWECSLPQA
notes: also called MSH3(-1)
In test [1], B14 returned an IC50 of 9 nM.

B15: LLDILDTAGL (peptide)
peptide: LLDILDTAGL
notes: also called KRAS, Q61L
In turn, B15 showed an IC50 in test [1] of 716 nM.

B16: ALAPTLTHM (peptide)
peptide: ALAPTLTHM
notes: also called MLL2, . . ; LSPH
B16 came in with an IC50 in test [1] of 59 nM.

B17: FFFETKSCSV (peptide)
peptide: FFFETKSCSV
notes: also called C15ORF40(+1)
In the test with HLA-A02.01, B17 came in with an IC50 of 61.2 nM.

B18: VQWRSLGSL (peptide)
peptide: VQWRSLGSL
notes: also called C15ORF40(+1)
On to B18, for which, in the test with HLA-A02.01, the concentration for half-maximal inhibition (IC50) came to 4730 nM.

B19: LLQVTQTSFA (peptide)
peptide: LLQVTQTSFA
notes: also called MLL2, . . ; LSPH
In test [1], B19 displayed an IC50 of 677 nM.

B20: FKLFSCLSFL (peptide)
peptide: FKLFSCLSFL
notes: also called C15ORF40(+1)
Turning to B20, the IC50 with HLA-A02.01 turned out to be 663 nM.

B21: KQWSSVTSL (peptide)
peptide: KQWSSVTSL
notes: also called EIF2B3(-1)
In the case of B21, the IC50 in the test with HLA-A02.01 was determined as 26.5 nM.

B22: FFFSVIFST (peptide)
peptide: FFFSVIFST
notes: also called CNOT1(+1)
Consider B22, for which the IC50 with HLA-A02.01 worked out at 4560 nM.

B23: MSVCFFFFSV (peptide)
peptide: MSVCFFFFSV
notes: also called CNOT1(+1)
With B23, in the test with HLA-A02.01, the IC50 was found to be 1710 nM.

B24: FLLALWECS (peptide)
peptide: FLLALWECS
notes: also called MSH3(-1)
In the case of B24, the IC50 in test [1] is 93.2 nM.

B25: ILIRKAMTV (peptide)
peptide: ILIRKAMTV
notes: also called EPHB2(-1)
For the molecule B25, the IC50 with HLA-A02.01 is 19.5 nM.

B26: LIVSRTLLLV (peptide)
peptide: LIVSRTLLLV
notes: also called MSH3(-1)
For B26, the IC50 in test [1] is 10900 nM.

B27: CLIVSRTLLL (peptide)
peptide: CLIVSRTLLL
notes: also called MSH3(-1)
As to B27, the IC50 in test [1] was found to be 2010 nM.

B28: RLWHLLLQV (peptide)
peptide: RLWHLLLQV
notes: also called MLL2, . . ; LSPH
B28 yielded an IC50 in test [1] of 1.3 nM.
